According to PMC9065602, “Characterization of Polymer Degrading Lipases, LIP1 and LIP2 From Pseudomonas chlororaphis PA23” (Frontiers in Bioengineering and Biotechnology, 2022):

System: CCCCCCCC(=O)Oc1ccc([N+](=O)[O-])cc1
Test: purified protein
Assay type: biochemical, Pseudomonas chlororaphis
Details: 0.1-3.0 mM substrate, optimal conditions (pH 8.0, 40 °C)

LIP2 (Pseudomonas chlororaphis)
Km: 0.286 mM
